In the nanobody polyreactivity screen of Harvey et al. (2022):

Assay: yeast display, Sf9 membrane polyspecificity reagent, FACS + sequencing; frameworks hold sequencing errors
Method in brief: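 Synthetic nanobody libraries on Saccharomyces cerevisiae BJ5465 were galactose-induced for 36–48 hours, stained 1 hour at 4 °C with 10% biotinylated, detergent-solubilized Sf9 membrane reagent and enriched on streptavidin microbeads. FACS then separated cells into low and high (top ~1%) gates by anti-HA (expression) and streptavidin (reagent binding) fluorescence. Genes were colony-PCR amplified, MiSeq 2 × 250 sequenced and CDR-length filtered. A clone's polyreactivity label is that of its gate of origin.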

Sequence: QVQLVESGGGLVQAGGSLRLSCAASGLIFPVYTLGWYRPAPGKERELVAAITSSGDSTYYADSVKGRFTISRDNAKNTVYVQMNSLKPEDTAVYYCAARLVEKYGGTYSFDYWGQGTQVTVSS
- polyreactivity (PSR sort gate): low polyreactivity

Sequence: QVQLVESGGGLVQAGGSLRLSCAASGSIFITYAMGWYRQAPGKERELVAAIRDSGDRTYYADSVKGRFTISRDNEKNTVYLQMNSLKPEDTAVYYCNARWQEPLKYDYWGQGTQVTVSS
- polyreactivity (PSR sort gate): low polyreactivity

Sequence: QVQLVESGGGLVQAGGSLRLTSAASGRTFGTNPMGWYRQETGKERELVDAISRRGGSTYYADSVKARFTISRDNAKNTVNLQMNSLKPEDTAVYYCAKTIGLKHEDEYWGQGTQVTVSS
- polyreactivity (PSR sort gate): low polyreactivity

Sequence: QVQLVDSGGGLVQAGGRLRLSCAASGRTFSKYAMGWYRQAPGKERELVASITRSGGSTNYADTVKGRFTISRDNAKNTVYLQKNSLKPEDTAVYYCRRKLGRTHDTGFDYWGQGTQVTVSS
- polyreactivity (PSR sort gate): low polyreactivity

Sequence: QVQLVESGGGLVQAGGSLRLSCAASGRIFYVYAMGWYRQAPGKERELVAAITQSGGRTYYADSVKGRFTISRDNAKNTVYLQMNSLKPEDTAVYYCAATWLGSRNLVHITLYYWGQGTQVTVSS
- polyreactivity (PSR sort gate): low polyreactivity

Sequence: QVQLVESGGGLVQAGGSLRLSCAASGSIFYVNGMGWYRQAPGKERELVARITLSGTSTYYADSVKGRFTISRDNAKNTVYLQRNSLKPEDPAVYYCAAPYFTYGQDEDEYWGQGTQGTVSS
- polyreactivity (PSR sort gate): low polyreactivity

Sequence: QVQLVESGGGLVQAGGSLRLSCAASGITFWTYTMGWYRQAPGTERELVAAISKRGGSTYYADSVKGRFTISRDNAKNSVYLQMNSLKPEDTAVYYCAATYSYRFSSFDYWGQGTQVTVSS
- polyreactivity (PSR sort gate): high polyreactivity

Sequence: QVQLVESGGGLVQAGGSLRISCAASGSILDGNAMGLYRQAPGKERELFAGISESDGSTNYADSVKGRFTISRDNAKNTVYLQMNSLNPEDTAVYYCAADIWTCGDIPYDYWGQGTQVTVSS
- polyreactivity (PSR sort gate): low polyreactivity

Sequence: QVQLVESGGGLVQAGGSLRLSCAASGIIFPGYVMGWYRQAPGKERELVAAISYSGGRTYYADSVKGRFTISRDNAKNTVYLQMNSLIPEDTAVYYCAARKSYFTSTDRYYGYYYHQSNYLGQGTQVTVSS
- polyreactivity (PSR sort gate): high polyreactivity

Sequence: QVQLVESGGGLVQAGGSLRLSCAASGRTFVWNVMGWYRQAPGKEREFVAAISGGSTYYADSVKGRFTISRDNAKNTVYLKMNSLKQEDTPVYYCAAASKLHPRYEYWGQGTQVTVSS
- polyreactivity (PSR sort gate): low polyreactivity

Sequence: QVQLVESGGGLVQPGGSLRLSSAASGITFPDYAMGWYRKAPGKERELVATITSSGGRTYYAHSVKGRFTISRDNAKNTVYLQMKSLKTEDTAVYYCAARRAYIRTLYYWGQGTQVTVSS
- polyreactivity (PSR sort gate): high polyreactivity

Sequence: QVQLVESGGGLVQAGGSLRLSCASSGFTFAYYAMGWYRQAPGKERELVAAISSRGGSTYADSVKGRFTISRDNAKNTVYLQMNSLKPEYTAVYYCNAVVPRSRYFSWTYDYWGQGTQVTVSS
- polyreactivity (PSR sort gate): high polyreactivity

Sequence: QVQLVESAGGLVQAGGSLRLSCAASGITFNDNAMGGYRQAPGKERELVAAINSGNGTDYEDSVKGRFTISRDNAKNTVYLQMNSLKPEDTAVYYCATEGYVQGDLGYLYTRYAFYYWGQGTQVTVSS
- polyreactivity (PSR sort gate): low polyreactivity

Sequence: QVQLVSSGGGLVLAGGSLRLSCAASGRTIQDNAMGWYTQAPGKERELVAAISWRGGSTNYADSVKGRFTISRDNAKNTVYLQMNSLKPEDTAVYYCNRDPRKYGKLDYWGQGTQVTVSS
- polyreactivity (PSR sort gate): low polyreactivity

Sequence: QVQLVESGGGVVQAGGSLRLSCAASGSTFGHNAMGWYRQAPGKERELVAVITSGGSTYYADSVKGRFTISRDNAKNTVYLQMNSLKPEDTAVYFCATDGGNSATVRYVASDYWGQGTQVTVSS
- polyreactivity (PSR sort gate): high polyreactivity

Sequence: QVQLVESGGGLVQAGGSLRLSCAASGRIFYYYAMGWYRQAPGKERELVAAITWSGVNTYYADSVKGRFTISRDNAKNTVYLQMNSLKPEDTAVYYCATDTGYPYSYDLYDSYYWGQGTQVTVSS
- polyreactivity (PSR sort gate): low polyreactivity

Sequence: QVQLQECGGGLVQAGGSLRLSCAASGNIFDADIMGWYRQAPGKERELVASVSDGGSTNYADSVKGRFTISRDNAKNTVYLQMNSLKPEDTAVYYCAAIVYPDILTYFDYDYDYFYWGQGTQVTVGS
- polyreactivity (PSR sort gate): low polyreactivity

Sequence: QVQLVESGGGLVQAGGSLRLSCAASGRTFYYYAMGWSRQAPGKERELVAAIRWRATSTFYADSVKGRFTISRDNAKNTVYLQMNSLKPEDSAVYYCATTGGYRLQAQKYYYWGQGTQVTLSS
- polyreactivity (PSR sort gate): high polyreactivity

Sequence: QDHLVESGGGLVQAGGSLRLSCAASGSTFGWYAMGWYRHAPGKERELVAVITRGGSTYYADSVKGHFTITLDNAKNTVYLQMNSLKPEDTAVYFCAARYRLPPYYYWGHGTQVTVSS
- polyreactivity (PSR sort gate): high polyreactivity

Sequence: QVQLVESGGGLVQAGGSLRLSCAASGYIFSYYAMGWYRQAPGKEREFVAAIRWRGGSTYYADSVKGRFTISRDNAKKTVYLQMNSLKPEDTAVYYCAAGPGTSYYWGQGTQVTVSS
- polyreactivity (PSR sort gate): high polyreactivity

Sequence: QVQLVESGGGLVQAGGSLRLSCAASGRTSLNYAMGWYRQAPGKERELVAAITRGGGGTYYADSVKGRFTISRDNAKNTVYLQMNSLIPEDTAVYYCNRVFSLYGYGWQKYDYWGQGTQVTVSS
- polyreactivity (PSR sort gate): high polyreactivity

Sequence: QVQLVESGGGLVQAGGSLRLSCAASGLNFRQYAMGWYRKAPGKERELVAAITVTGGTTYYADSVKGRFTISRDNAKNTVYLQMNSLKPEDTAVYYCATRANYVGWTQFGHGYDYWGQGTQVTVSS
- polyreactivity (PSR sort gate): low polyreactivity

Sequence: QVQLVESGGGLVQAGGSRRLSCAASGSIFVSNAMGWDRQAPGKERELVAAISGGCSTYYADSVKGRFTISRDNAKNTVYLQMNSLKPEDTAVYYCNALFDGYAQDLDYDYWGQGTQVTVSS
- polyreactivity (PSR sort gate): low polyreactivity

Sequence: QVQLVESGGGLVQAGGSLRLSCAASGRTFVSNAMGWYRQAPGKERELVAVITGIGGNTYYADSVKGRFTISRDNAKTTVYLQMYSLKPEDTAVYYCAADQIYSFYPVYGSWIYSMYYWGQGTQVTVSS
- polyreactivity (PSR sort gate): low polyreactivity

Sequence: QVQLVESGGGLVQAGGSLRLSCADSGRIFGRYAMGWYRQAPGKERDLVAAIRSGGSTYYADSVKGRFTISRDNAKNSVYLQMNSLKPEDTAVYYCAADWGPFRLGYGYYYWGQGTQVTVSS
- polyreactivity (PSR sort gate): high polyreactivity

Sequence: QVQLVESGGGLVQAGGSLRLSCAASGSIFNANAMGLYIQAPGKERELVASISGGAGSTYYADSVKGRFTISRDNAKNTVYLQMNSLKPEDTAVYYCNARWQEPLKYDYWGQGTQVTVSS
- polyreactivity (PSR sort gate): low polyreactivity

Sequence: QVHLVETGGGLDQAGGSLRLSCAASGYTFKTNDMRAYSPPPGKDREFVAAISAIGASTYYADSVKGRFTISRDTAKNTVYLQMKSLKPEDTAVYYCATGPYPLWYVWTDGYDHWGQGTQVPVSS
- polyreactivity (PSR sort gate): low polyreactivity

Sequence: QFQLVESGGGLVQAGGSLRLSCAASGSTFDTYAMGWYRQAPGKERDLFAAISGSGVRTYYADSVKGRFTISRDNAKNTVYLQMNSLKPEDTAVYYSAAAGSGYGGKQFDHGFNYWGQGTQVTVSS
- polyreactivity (PSR sort gate): high polyreactivity

Sequence: QVQLVESAGGLVQAGGSLRLSCAASGNIFSYYAMGWYRQAPGKERELVAAISRRGTNTYYADSVKGRFTISRDNAKNTVYLQMKSLKPEDTAVYYCARYGPYQSSYHYDYWGQGTQVTVSS
- polyreactivity (PSR sort gate): high polyreactivity

Sequence: QVQLVESGGGLVQAGGSLRLSCAASGFIFNVYDMGWYRQAPGKERELVAAISTSGSNTYYADSVKVRFTISRDNAKNTVYLQMNSLKPEDTAVYYCNAVRVRVRWHYYAVYYWGQGTQVTVSS
- polyreactivity (PSR sort gate): high polyreactivity

Sequence: QVQLVESGGGLVQAGGSLRLSCAASGGIFSYYTMGWYRQAPGKERELVARITTGGSTNYADSVKGRFTISRDNAKNTVYLQMNSLKPEDTAVYYCAATGPKYWLTWSSYTRYDYWGQGTQVTVSS
- polyreactivity (PSR sort gate): high polyreactivity

Sequence: QVQLVESVGGLVKAGGSLRLSCAASGSTFRYYSMGWYRPAPGKERELVAGITTGGGRTYYADSVKGRFTISRDNAMNTVYLQMNSLKPEDTAVYSCAADRYSHYWYRNSYDYWGQGTQVTVSS
- polyreactivity (PSR sort gate): high polyreactivity

Sequence: QDQLVESGGGLVQAGGSLRLRCAASGFTFGCYAMGWYRQAPGKERELVASITSGGSTNYADSVKGRFTISRDNAKNTVYLQMNTLKPEDTAVYYCAKDLLGFDKVQYKIEDYWGQGTQVTVSS
- polyreactivity (PSR sort gate): low polyreactivity

Sequence: QVQLVESGGGLVQAGGSLRLSCPASGNIFWWNARGWYRQAPGKERELVAAITSDSTTYYADSVKGRFTISRDNAKNTVYLQMNSLKPEDTAVYYCAAYSYGGQGVDYGYWGQGTQVTVSS
- polyreactivity (PSR sort gate): low polyreactivity

Sequence: QVQLVESGGGLVQAGGSLRLSCAASGRIFYYNAMGWYRQAPGKESELVAAIRYSGGSTSYADSVKGRFTISRDNAKNTVYLQMNSLKPEDTAVYYCAASTSNRWKLNYWGQGTQVTVSS
- polyreactivity (PSR sort gate): high polyreactivity

Sequence: QVQLVESWGGLVQAGGSLRLSCAASGFIFTLYAMGWYRQATGKEREFVAAISWSDGSTTYADSVKGRFTISRDNAKTTVYLQMNSLKPEDTAVYYCAAVTSSYIRGLVYHFYYWGQGTQVTVSS
- polyreactivity (PSR sort gate): low polyreactivity

Sequence: QVQLVESGGGLVQAGGSLRLSCAASGTTFYGYVMGWYRQAPGKQREWVAAISSSGGRTYYADSVKGRFTISRDNAKNTVYLQMNSLNPEDTAVYYCNTVQRYSTHYDYWGQGTQVTVSS
- polyreactivity (PSR sort gate): high polyreactivity

Sequence: QVQLVESGGGLVQAGGSLRLSSAASGSIFVKNARGWYRQAPGKVRELVARISFSGGSTYYADSVKGRFTISRDNAKNTVYLQMNSLKPEDTAVYYCAKTVLRTEYGWWIKFDYWGQVTQVTVSS
- polyreactivity (PSR sort gate): low polyreactivity

Sequence: QVQLVDSGGRLVQAGGSLRLSCAASGRIFVNNAMRWYRQAPGKERELVAAITRGGSTYYADSVKGRFTLSRDNAKNTVYLQMNSLKPEDTAVYYCDSDYQRNDFRWYDYWGQGTHVTVSS
- polyreactivity (PSR sort gate): low polyreactivity

Sequence: QVQLVESGGGLVQAGGSLRLSCAASGNTFYAYAMGWYRQAPGKERELVAAIARGGNTYYADSVKGRFTISRDNAKNTVYLQMNSLKPEDTAVYYCNAYYPIRSSPYGYYYWGQGTQVTVSS
- polyreactivity (PSR sort gate): high polyreactivity

Sequence: QVQLVESGGGLVQAGGSLRLSCAASGIIFYYNAMGWYRQAPGKERELVAAISSSGGSTSYADSVKGRFTISRDNAKNTVYLQMNSLKPEDTAVYYCAADSSPAYLGFVGFDYWGQGTQVTVSS
- polyreactivity (PSR sort gate): low polyreactivity

Sequence: QDQLVESGGGLVQAGGSLRLICAASGSIFTSNAMGWYRQAAGKERELVAAITSSGGSTYYADSVKGRFTISRDNAKNTVYLHMNSLKPEYTAVYYCAAAKFDLSFWLYYWGQGTQVTVSS
- polyreactivity (PSR sort gate): low polyreactivity

Sequence: QVQLVESGGGLVQAGGSLRLSCAASGITFVQNVMGWYRQAPGKEREFVAGINYSGGSTYYADSVKGRFTISRDNAKNTVYLQMNSLKPEDTAVYYCAADYDRYTYAFVYRYRRMYYWGQGTQVTVSS
- polyreactivity (PSR sort gate): low polyreactivity
